Source: publication PMC8556268 (Communications Biology, 2021)
Several values for one entry are separate records, joined by “and”; a condition that tells them apart may be missing. Identical values can stand only once.

Legend:
Conditions in all cases: both partners purified
[1] = target: T1, SARS-CoV-2 spike protein receptor-binding domain (RBD) (SARS-CoV-2, strain  …, UniProt P0DTC2); assay: ELISA
T1 construct: also called SARS-CoV-2 RBD; SARS RBD; source: provided by Roland Strong, Fred Hutchinson Cancer Research Center

[2] = target: enzymatically biotinylated SARS-CoV-2 RBD, loaded on streptavidin biosensors (SARS-CoV-2, strain  …, UniProt P0DTC2)
[3] = target: T2, SARS-CoV-2 spike protein receptor-binding domain (RBD), coated on ELISA plates (SARS-CoV-2, strain  …, UniProt P0DTC2); assay: ELISA
T2 construct: also called SARS-CoV-2 RBD; SARS-CoV2 RBD; source: provided (Roland Strong, Fred Hutchinson Cancer Research Center)

[4] = target: enzymatically biotinylated SARS-CoV-2 spike protein receptor-binding domain (RBD) (SARS-CoV-2, strain  …, UniProt P0DTC2)

Binder	EC50 [1]	other results
tcTRP9_(3)-VHH678_(3) (VHH, also called tcTRP9x3_VHH6783; construct 678; source: E. coli BL21(DE3)-RIL, purified (Ni-NTA, dialysis into 1x PBS)) VHH: QVQLQESGGGLVQAGGSLRLSCAASGRTFSEYAMGWFRQAPGKEREFVATISWSGGSTYYTRSVKGRFTISRDNAKNTVYLQMNSLKPDDTAVYYCAAAGLGTVVSEWDYDYDYWGQGTQVTVSS	2.06 nM	
tcTRP9_(3)-VHH681_(3) (trimeric tcTRP9_(3) with VHH 72D61R on each subunit, construct 681) (VHH, also called tcTRP9_(3)-VHH3; tcTRP9x3-VHH3; source: E. coli, purified (Ni-NTA, dialysis into 1x PBS)) VHH: QVQLQESGGGLVQAGGSLRLSCAASGRTFSEYAMGWFRQAPGKEREFVATISWSGGSTYYTRSVKGRFTISRDNAKNTVYLQMNSLKPDDTAVYYCAAAGLGTVVSEWDYDYDYWGQGTQVTVSS		Kd [2]: ~0.43 nM; EC50 [3]: 0.4 nM and ~0.64 nM
tcTRP9_(3)-VHH3 construct 680 (trimeric tcTRP9_(3) with VHH 72D61R on each subunit) (VHH, also called tcTRP9x3-VHH3; Trimeric VHH 72D61R; source: E. coli, purified (Ni-NTA, dialysis into 1x PBS)) VHH: QVQLQESGGGLVQAGGSLRLSCAASGRTFSEYAMGWFRQAPGKEREFVATISWSGGSTYYTRSVKGRFTISRDNAKNTVYLQMNSLKPDDTAVYYCAAAGLGTVVSEWDYDYDYWGQGTQVTVSS		EC50 [3]: 12 nM
tcTRP9_(3)-VHH680_(3) (VHH, also called tcTRP9x3_VHH6803; construct 680; source: E. coli BL21(DE3)-RIL, purified (Ni-NTA, dialysis into 1x PBS)) VHH: QVQLQESGGGLVQAGGSLRLSCAASGRTFSEYAMGWFRQAPGKEREFVATISWSGGSTYYTRSVKGRFTISRDNAKNTVYLQMNSLKPDDTAVYYCAAAGLGTVVSEWDYDYDYWGQGTQVTVSS	8.01 nM	
tcTRP9_(3)-VHH683_(3) (VHH, also called tcTRP9x3_VHH6833; construct 683; source: E. coli BL21(DE3)-RIL, purified (Ni-NTA, dialysis into 1x PBS)) VHH: QVQLQESGGGLVQAGGSLRLSCAASGRTFSEYAMGWFRQAPGKEREFVATISWSGGSTYYTRSVKGRFTISRDNAKNTVYLQMNSLKPDDTAVYYCAAAGLGTVVSEWDYDYDYWGQGTQVTVSS	2.69 nM	
tcTRP9x3_VHH685_(3) (VHH, also called construct 685; source: E. coli BL21(DE3)-RIL, purified (Ni-NTA, dialysis into 1x PBS)) VHH: QVQLQESGGGLVQAGGSLRLSCAASGRTFSEYAMGWFRQAPGKEREFVATISWSGGSTYYTRSVKGRFTISRDNAKNTVYLQMNSLKPDDTAVYYCAAAGLGTVVSEWDYDYDYWGQGTQVTVSS	1.88 nM	
tcTRP9_(3)-VHH681_(3) (VHH, also called tcTRP9x3_VHH6813; construct 681; source: E. coli BL21(DE3)-RIL, purified (Ni-NTA, dialysis into 1x PBS)) VHH: QVQLQESGGGLVQAGGSLRLSCAASGRTFSEYAMGWFRQAPGKEREFVATISWSGGSTYYTRSVKGRFTISRDNAKNTVYLQMNSLKPDDTAVYYCAAAGLGTVVSEWDYDYDYWGQGTQVTVSS		koff [4]: 3.98e-05 s⁻¹
tcTRP9_(3)-VHH682_(3) (VHH, also called tcTRP9x3_VHH6823; construct 682; source: E. coli BL21(DE3)-RIL, purified (Ni-NTA, dialysis into 1x PBS)) VHH: QVQLQESGGGLVQAGGSLRLSCAASGRTFSEYAMGWFRQAPGKEREFVATISWSGGSTYYTRSVKGRFTISRDNAKNTVYLQMNSLKPDDTAVYYCAAAGLGTVVSEWDYDYDYWGQGTQVTVSS	4.65 nM	
tcTRP9_(3)-VHH679_(3) (VHH, also called tcTRP9x3_VHH6793; construct 679; source: E. coli BL21(DE3)-RIL, purified (Ni-NTA, dialysis into 1x PBS)) VHH: QVQLQESGGGLVQAGGSLRLSCAASGRTFSEYAMGWFRQAPGKEREFVATISWSGGSTYYTRSVKGRFTISRDNAKNTVYLQMNSLKPDDTAVYYCAAAGLGTVVSEWDYDYDYWGQGTQVTVSS	5.52 nM	
tcTRP9_(3)-VHH684_(3) (VHH, also called tcTRP9x3_VHH6843; construct 684; source: E. coli BL21(DE3)-RIL, purified (Ni-NTA, dialysis into 1x PBS)) VHH: QVQLQESGGGLVQAGGSLRLSCAASGRTFSEYAMGWFRQAPGKEREFVATISWSGGSTYYTRSVKGRFTISRDNAKNTVYLQMNSLKPDDTAVYYCAAAGLGTVVSEWDYDYDYWGQGTQVTVSS	1.89 nM	
